Numbering of substitutions follows the chain as printed.
B1: 01_B01 (antibody, V domains shown)
VH: HVQLWQSGAEVKKPGASVKISCAAWGFGTTSGYSFRDYRIHWVRQVPGQGFQWMGHIQPRYGAVNYAHQFQGRITMTREVSFDASGGTAYMELRSLRSDDTATYYCVTHKLYDGEDASDLAWRLDPWGQGTRVTVSS
VL: GVHLTQSPASLSASVGDRVTFTCQASQDITNAINWYQLRPGKTPKLMIHDGSTLRRGVPSRFAGGGFGTKFTFTIDNLQPEDLATYFCQHYEFFPPAGTQVELN
B2: 05_C07 (antibody, V domains shown)
VH: HVQLWQSGAEVKKPGASVKISCSAWGFGTRSGYTFRDYRIHWVRQVPRQGFEWMGHLHPAYGAVNYARQFQGRIIMTREVSFDGSGGTVYMELRSLRSDDTATYYCVTHKLYDGEDASDLTWRLDPWGQGTRVTVSS
VL: B1 VL with H3S, S12C, G65S, K70R, E102D, L103F
B3: 01_D03 (antibody, V domains shown)
VH: B1 VH with A23S, I40V, Q45H, V46I, P47A, I57M, H68R, T103V, A121T, T134I
VL: B1 VL with G65S, A97V
B4: 04_A06 (antibody, V domains shown)
VH: SVRLDQSGTAVKKPGASVRVSCRAPDSFTVYRPRLSAYFIGEFNIHWLRQAPGQGLEWLGFVNIFRGAVKYSSRFQGRITITRDTSSETSYLDLGALKADDTATYYCAWDKNVDDNPWRLDSWGQGTLVIVSS
VL: YIQVTQSPSSLSASIGDTITVACEVSQDVGWAVNWYHQRPGRPPYNLIYTAHNLAPGVASRFRGSRVGTYFTLTINNLLPEDVGTYYCQVFDSFAPGGTRVDL
B5: 04_B09 (antibody, V domains shown)
VH: B4 VH with R74A, Q76R, S87L, A99P, Y106F, I130V
VL: YIQVTQSPSSLSASVGDTITVACQVSQDVGWAVNWYHQRPGRPPYNLIYTTSNLAPGVASRFRGTRVATYFTLTINNLLPEDVGTYYCQVFESFAPGGTRVDLR

What was measured:
Assay in all cases: cell-based or functional assay
[1] = target: HIV-1 envelope proteins of the panel of 12 global reference pseudovirus strains of HIV-1
[2] = target: HIV-1 envelope proteins of the panel of 8 pseudoviruses insensitive to neutralization by CD4bs bNAbs
[3] = target: HIV-1 envelope proteins of the panel of 100 clade C HIV-1 pseudoviruses
[4] = target: HIV-1 envelope proteins of the panel of 185 pseudoviruses generated from the Antibody Mediated Prevention Trials
[5] = target: HIV-1 envelope proteins of the multiclade panel of 119 pseudoviruses
[6] = target: HIV-1 envelope proteins of the panel of 7 pseudoviruses selected from the 'Resistant panel to CD4bs bNAbs'
[7] = target: HIV-1 envelope proteins of the panel of 9 pseudoviruses resistant against CD4bs bNAbs

Binder | geometric mean IC50, TZM-bl cell pseudovirus neutralization assay [1] [mg/L] | neutralization breadth, TZM-bl cell pseudovirus neutralization assay [1] [%] | further results
B1 | < 0.05 | 100 | –
B2 | < 0.05 | 100 | –
B3 | 0.021 | 100 | neutralization breadth, TZM-bl cell pseudovirus neutralization assay [2]: 88%
B4 | 0.038 | 100 | geometric mean IC50, TZM-bl cell pseudovirus neutralization assay [3]: 0.057 mg/L; neutralization breadth, TZM-bl cell pseudovirus neutralization assay, up to 10 µg/ml [3]: 99%; GeoMean IC50, TZM-bl cell pseudovirus neutralization assay [4]: 0.084 mg/L; neutralization breadth, TZM-bl cell pseudovirus neutralization assay [4]: < 98%; geometric mean IC50, TZM-bl cell pseudovirus neutralization assay [5]: 0.036 mg/L; neutralization breadth, TZM-bl cell pseudovirus neutralization assay, up to 10 µg/ml [5]: 99%; IC50, TZM-bl cell pseudovirus neutralization assay [6]: 0.153 mg/L; neutralization breadth, TZM-bl cell pseudovirus neutralization assay, up to 10 µg/ml [6]: 86%; neutralization breadth, TZM-bl cell pseudovirus neutralization assay, up to 10 µg/ml [7]: 100%
B5 | < 0.05 | 100 | –
